Test results published in patent US20250257130A1 (NONA BIOSCIENCES SUZHOU, published 2025).

How the values were obtained:
[1] = biological target: T1, Human ROR1-ECD-his (Acro Biosystems RO1-H522y) (human, UniProt Q01973 30-406); test: BLI in-tandem, row = 1st Ab; competitor (2nd Ab): PR005340
T1 construct: extracellular domain; bought protein; also called hROR1-ECD-his; hu-ROR1-ECD-his
Source text: (§1) To determine if anti-ROR1 antibodies bind to human ROR1 on different or approximate binding epitopes, the ForteBio Octet® RED96e platform was used to perform epitope competition experiments on the anti-ROR1 antibodies. Human ROR1 protein (Acrobiosystems, #RO1-H522y) was biotinylated and then captured onto SA biosensors (ForteBio, #18-5020) to reach loading level of 0.3-0.4 nm. The in-tandem competition assay format was applied and it contains two association steps. Firstly, the antigen-loaded biosensors bind to each antibody (a.k.a, First antibody, 1st Ab) with a saturating concentration of 200 nM for 180 seconds to reach equilibrium and then secondly bind to the competing antibodies (a.k.a, Second antibody, 2nd Ab) of 200 nM for 180 seconds. The second binding signals were recorded as the 100% signal of each antibody when the first antibodies were replaced by kinetics buffer. All the binding data were analyzed using ForteBio Data Analysis 11.0 software. The inhibition rate is calculated by the following formula: […]

[2] = biological target: T2, human ROR1 on cells (HEK293T-hROR1, PANC-1, A549) (human, UniProt Q01973 30-937); test: flow cytometry on PANC-1 cells, MFI (APC-A Median)
T2 construct: whole, on cells; one molecule for the three cell lines; also called huROR1; cell surface ROR1
T2 sequence (Q01973 30-937): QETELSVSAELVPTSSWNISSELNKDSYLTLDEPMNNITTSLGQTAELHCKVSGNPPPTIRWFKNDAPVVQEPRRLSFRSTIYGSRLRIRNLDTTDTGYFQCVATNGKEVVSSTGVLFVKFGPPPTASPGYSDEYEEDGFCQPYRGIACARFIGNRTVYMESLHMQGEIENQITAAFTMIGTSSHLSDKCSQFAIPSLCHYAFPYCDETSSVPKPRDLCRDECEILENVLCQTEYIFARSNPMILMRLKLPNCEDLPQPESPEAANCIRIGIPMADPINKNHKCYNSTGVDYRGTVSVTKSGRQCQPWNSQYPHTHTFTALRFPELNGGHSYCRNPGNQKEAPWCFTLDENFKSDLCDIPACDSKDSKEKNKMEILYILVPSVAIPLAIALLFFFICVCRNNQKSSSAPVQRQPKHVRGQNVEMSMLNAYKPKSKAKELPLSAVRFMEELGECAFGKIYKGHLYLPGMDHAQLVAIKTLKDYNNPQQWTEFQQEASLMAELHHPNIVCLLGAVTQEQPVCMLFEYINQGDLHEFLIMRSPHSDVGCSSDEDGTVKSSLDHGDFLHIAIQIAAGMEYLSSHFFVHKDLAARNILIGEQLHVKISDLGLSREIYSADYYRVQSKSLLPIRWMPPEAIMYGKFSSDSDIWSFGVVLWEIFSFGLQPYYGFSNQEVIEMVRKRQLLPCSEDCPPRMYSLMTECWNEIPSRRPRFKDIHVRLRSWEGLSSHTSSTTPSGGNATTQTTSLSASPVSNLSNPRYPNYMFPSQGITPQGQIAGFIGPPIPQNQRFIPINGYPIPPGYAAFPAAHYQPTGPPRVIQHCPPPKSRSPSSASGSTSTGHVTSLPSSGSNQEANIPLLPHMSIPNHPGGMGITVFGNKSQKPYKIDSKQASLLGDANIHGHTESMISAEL

[3] = biological target: T1, Human ROR1-ECD-his (Acro Biosystems …); test: BLI in-tandem, row = 1st Ab; competitor (2nd Ab): PR000374
Source text: as §1

T1 sequence (Q01973 30-406): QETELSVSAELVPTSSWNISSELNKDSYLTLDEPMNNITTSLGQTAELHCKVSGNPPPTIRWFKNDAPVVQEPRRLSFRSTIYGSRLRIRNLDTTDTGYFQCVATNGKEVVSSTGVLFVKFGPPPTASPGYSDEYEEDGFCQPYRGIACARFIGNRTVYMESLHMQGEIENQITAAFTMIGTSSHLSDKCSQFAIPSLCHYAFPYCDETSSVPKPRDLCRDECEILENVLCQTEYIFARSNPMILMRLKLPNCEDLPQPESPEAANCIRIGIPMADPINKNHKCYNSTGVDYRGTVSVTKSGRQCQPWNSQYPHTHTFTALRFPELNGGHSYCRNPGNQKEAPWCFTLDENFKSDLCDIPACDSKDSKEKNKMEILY

B1: PR000374 (antibody, human IgG1, kappa, V domains shown)
VH: EVQLVESGGGLVQPGRSLRLSCTASGSDINDYPITWVRQAPGQGLEWIGFINSGGSTWYASWVKGRFTISRDDSKSIAYLQMNSLKTEDTAVYYCARGYSTYYRDFNIWGQGTLVTVSS
VL: DIQMTQSPSSLSASVGDRVTINCQASQSIDSNLAWFQQKPGQPPKLLIYRASNLASGVPDRFSGSGSGTDFTLTISSLEAEDVATYYCLGGVGAVSYRTSFGGGTKVEIKR
notes: positive control; also called Bench marker 1
Question: Which results are given for B1?
Answer: Inhibition (%) [1]: -7.48%; EC50 (read off the curve) [2]: ~5 nM; Inhibition (%) [3]: 111%
